B1: PI115 phage clone (scFv displayed on M13 phage) (scFv, V domains shown)
VH: EVQLVQSGAEVKKPGASVKVSCKASGYTFTTYDINWVRQATGQGLEWMGWMNPNNGYTGYAQKFQGRVTMTRNTSISTAYMELSSLRSEDTAVYYCARTNWVYWYFDLWGRGTLVTVSS
VL: EIVLTQSPATLSLSPGERATLSCRASQSVSSFLAWYQQKPGQAPRLLIYDASNRATGIPARFSGSGSGTDFTLTISSLEPEDFAVYYCQQRSNWPLTFGPGTKVDIKR
notes: Tested as an scFv on M13 phage (phagemid pCANTAB 5E)
B2: hTRAILR2-hPSMA bispecific antibody E11-CH1-PI115VH antibody (bispecific antibody, IgG4)
heavy: not shown
VL: EIVLTQSPATLSLSPGERATLSCRASQSVSSFLAWYQQKPGQAPRLLIYDASNRATGIPARFSGSGSGTDFTLTISSLEPEDFAVYYCQQRSNWPLTFGPGTKVDIKR
notes: domain: constant region; The heavy chain is E11 VH, an IgG4 CH1 linker and PI115 VH, followed by the constant region of the vector; All four light chains carry E11 VL
B3: hTRAILR2-hPSMA bispecific antibody E11-ML-PI101VH antibody (bispecific antibody, IgM)
heavy: not shown
VL: EIVLTQSPATLSLSPGERATLSCRASQSVSSFLAWYQQKPGQAPRLLIYDASNRATGIPARFSGSGSGTDFTLTISSLEPEDFAVYYCQQRSNWPLTFGPGTKVDIKR
notes: domain: constant region; All four light chains carry E11 VL
B4: hTRAILR2-hPSMA bispecific antibody E11-CH1-PL223VH antibody (bispecific antibody, IgG4)
heavy: not shown
VL: EIVLTQSPATLSLSPGERATLSCRASQSVSSFLAWYQQKPGQAPRLLIYDASNRATGIPARFSGSGSGTDFTLTISSLEPEDFAVYYCQQRSNWPLTFGPGTKVDIKR
notes: domain: constant region; The heavy chain is E11 VH, an IgG4 CH1 linker and PL223 VH, followed by the constant region of the vector; All four light chains carry E11 VL; also called E11-CHI-PL223VH
B5: hTRAILR2-hPSMA bispecific antibody E11-CH1-PI108VH antibody (bispecific antibody, IgG4)
heavy: not shown
VL: EIVLTQSPATLSLSPGERATLSCRASQSVSSFLAWYQQKPGQAPRLLIYDASNRATGIPARFSGSGSGTDFTLTISSLEPEDFAVYYCQQRSNWPLTFGPGTKVDIKR
notes: domain: constant region; The heavy chain is E11 VH, an IgG4 CH1 linker and PI108 VH, followed by the constant region of the vector; All four light chains carry E11 VL
B6: hTRAILR2-hPSMA bispecific antibody E11-CH1-PI118VH antibody (bispecific antibody, IgG4)
heavy: not shown
VL: EIVLTQSPATLSLSPGERATLSCRASQSVSSFLAWYQQKPGQAPRLLIYDASNRATGIPARFSGSGSGTDFTLTISSLEPEDFAVYYCQQRSNWPLTFGPGTKVDIKR
notes: domain: constant region; The heavy chain is E11 VH, an IgG4 CH1 linker and PI118 VH, followed by the constant region of the vector; All four light chains carry E11 VL
B7: hTRAILR2-hPSMA bispecific antibody E11-CH1-PI127VH antibody (bispecific antibody, IgG4)
heavy: not shown
VL: EIVLTQSPATLSLSPGERATLSCRASQSVSSFLAWYQQKPGQAPRLLIYDASNRATGIPARFSGSGSGTDFTLTISSLEPEDFAVYYCQQRSNWPLTFGPGTKVDIKR
notes: domain: constant region; The heavy chain is E11 VH, an IgG4 CH1 linker and PI127 VH, followed by the constant region of the vector; All four light chains carry E11 VL
B8: hTRAILR2-hPSMA bispecific antibody E11-CH1-PI143VH antibody (bispecific antibody, IgG4)
heavy: not shown
VL: EIVLTQSPATLSLSPGERATLSCRASQSVSSFLAWYQQKPGQAPRLLIYDASNRATGIPARFSGSGSGTDFTLTISSLEPEDFAVYYCQQRSNWPLTFGPGTKVDIKR
notes: domain: constant region; The heavy chain is E11 VH, an IgG4 CH1 linker and PI143 VH, followed by the constant region of the vector; All four light chains carry E11 VL
B9: anti-hPSMA monoclonal antibody 2A10 antibody (antibody, human IgG1, V domains shown)
VH: EVQLVQSGAEVKKPGESLKISCKGSGYSFTSNWIGWVRQMPGKGLEWMGIIYPGDSDTRYSPSFQGQVTISADKSISTAYLQWSSLKASDTAMYYCARQTGFLWSSDLWGRGTLVTVSS
VL: IQLTQSPSSLSASVGDRVTITCRASQDISSALAWYQQKPGKAPKLLIYDASSLESGVPSRFSGYGSGTDFTLTINSLQPEDFATYYCQQFNSYPLTFGGGTKVEIK
notes: Expressed from vector N5KG1 (N5KG1_2A10), the human IgG1 type vector
B10: hTRAILR2-hPSMA bispecific antibody E11-CH1-PI134VH antibody (bispecific antibody, IgG4)
heavy: not shown
VL: EIVLTQSPATLSLSPGERATLSCRASQSVSSFLAWYQQKPGQAPRLLIYDASNRATGIPARFSGSGSGTDFTLTISSLEPEDFAVYYCQQRSNWPLTFGPGTKVDIKR
notes: domain: constant region; All four light chains carry E11 VL; also called E11-CH1-PI134 antibody
B11: hTRAILR2-hPSMA bispecific antibody E11-GL-PI134VH antibody (bispecific antibody, IgG4)
heavy: not shown
VL: EIVLTQSPATLSLSPGERATLSCRASQSVSSFLAWYQQKPGQAPRLLIYDASNRATGIPARFSGSGSGTDFTLTISSLEPEDFAVYYCQQRSNWPLTFGPGTKVDIKR
notes: domain: constant region; All four light chains carry E11 VL; also called E11-GL-PI1134VH

molecular target: T1, FLAG-hPSMA, extracellular domain protein of hPSMA with a FLAG-tag at the N-terminus (human, UniProt Q04609 44-750); test: phage ELISA, scFv phage clone on immobilized FLAG-PSMA
T1 construct: also called FLAG-PSMA; soluble hPSMA antigen
Protocol: The concentrated phage was monocloned and clones having the affinity to FLAG-PSMA were selected by ELISA. In ELISA, MAXISORP STARTUBE (manufactured by NUNC) in which the FLAG-PSMA of Example 5 described below was immobilized thereon, and a site not bound by FLAG-PSMA was blocked by using SuperBlock Blockig Buffer (manufactured by Thermo Fisher Scientific Inc.) was used.
Each phage clone was added to each well and allowed to react at room temperature for 30 minutes, and then each well was washed three times with PBS containing 0.1% Tween 20 (hereinafter referred to as PBS-T). Subsequently, a solution in which horseradish peroxidase-labeled anti-M13 antibody (manufactured by GE Healthcare) was diluted 5000 times with PBS-T containing 10% Block Ace (manufactured by Dainippon Pharma Co., Ltd.) was added to each well by 50 μL and incubated at room temperature for 30 minutes.

T1 sequence (Q04609 other isoform, or with tags, fused parts or gaps): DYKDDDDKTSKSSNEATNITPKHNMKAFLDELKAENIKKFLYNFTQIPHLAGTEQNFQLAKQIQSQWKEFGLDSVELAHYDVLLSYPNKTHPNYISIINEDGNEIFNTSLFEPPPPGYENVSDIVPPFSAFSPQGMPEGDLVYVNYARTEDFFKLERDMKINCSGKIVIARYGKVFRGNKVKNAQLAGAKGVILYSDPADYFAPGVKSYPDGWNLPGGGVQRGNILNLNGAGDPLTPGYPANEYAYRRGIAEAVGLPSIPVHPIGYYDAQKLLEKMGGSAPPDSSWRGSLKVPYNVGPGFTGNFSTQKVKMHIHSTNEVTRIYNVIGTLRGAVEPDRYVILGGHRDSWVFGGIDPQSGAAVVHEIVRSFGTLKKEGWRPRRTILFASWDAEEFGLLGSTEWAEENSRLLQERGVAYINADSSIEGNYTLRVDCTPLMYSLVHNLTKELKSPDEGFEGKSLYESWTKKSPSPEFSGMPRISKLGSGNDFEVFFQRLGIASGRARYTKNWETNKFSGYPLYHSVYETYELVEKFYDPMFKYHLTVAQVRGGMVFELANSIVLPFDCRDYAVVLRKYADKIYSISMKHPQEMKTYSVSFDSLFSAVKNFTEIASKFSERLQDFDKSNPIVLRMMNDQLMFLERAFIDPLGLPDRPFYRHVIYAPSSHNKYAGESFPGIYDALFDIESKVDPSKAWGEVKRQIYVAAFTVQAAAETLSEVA

Q: Does B1 bind?
A: Result: binds

molecular target: T2, human prostate specific membrane antigen (hPSMA), membrane form on cells (human, UniProt Q04609 1-750); test: flow cytometry on hPSMA/PC3 cells against PC3 cells (no data disclosed)
T2 construct: endogenous on LNCaP clone FGC cells; also called membrane hPSMA
T2 sequence (Q04609 whole entry): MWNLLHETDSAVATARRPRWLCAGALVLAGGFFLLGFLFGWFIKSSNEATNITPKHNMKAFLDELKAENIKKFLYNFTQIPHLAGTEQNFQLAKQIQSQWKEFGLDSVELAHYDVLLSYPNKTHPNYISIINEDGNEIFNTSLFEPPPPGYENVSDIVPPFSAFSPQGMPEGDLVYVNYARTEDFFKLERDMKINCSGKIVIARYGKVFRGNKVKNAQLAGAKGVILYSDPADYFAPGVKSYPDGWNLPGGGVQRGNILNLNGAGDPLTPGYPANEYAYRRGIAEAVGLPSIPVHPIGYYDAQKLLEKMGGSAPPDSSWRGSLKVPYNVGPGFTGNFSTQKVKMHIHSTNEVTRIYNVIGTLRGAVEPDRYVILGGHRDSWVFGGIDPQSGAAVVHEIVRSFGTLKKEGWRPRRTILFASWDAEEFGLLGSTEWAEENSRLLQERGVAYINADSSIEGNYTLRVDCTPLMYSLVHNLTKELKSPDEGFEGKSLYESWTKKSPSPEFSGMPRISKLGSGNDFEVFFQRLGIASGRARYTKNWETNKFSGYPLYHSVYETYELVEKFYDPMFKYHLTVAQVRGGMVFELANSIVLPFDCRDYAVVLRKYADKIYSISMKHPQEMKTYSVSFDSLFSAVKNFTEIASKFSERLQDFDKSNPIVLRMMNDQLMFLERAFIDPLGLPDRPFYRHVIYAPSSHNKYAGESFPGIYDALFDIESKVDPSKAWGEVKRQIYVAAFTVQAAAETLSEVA

Q: Does B2 bind?
A: Result: binds

Q: Does B3 bind?
A: Result: binds

Q: Does B4 bind?
A: Result: binds

Q: Does B5 bind?
A: Result: binds

Q: Does B6 bind?
A: Result: binds

Q: Does B7 bind?
A: Result: binds

Q: Does B8 bind?
A: Result: binds

molecular target: T2, human prostate specific membrane …; test: flow cytometry on hPSMA/L929 cells (FIG. 2)
Protocol: The cells were suspended in a staining buffer [PBS containing 0.1% NaN₃ and 1% FBS] at a concentration of 1×10⁶ cells/mL, and dispensed in a round-bottom 96-well plate (manufactured by Becton Dickinson) by 100 μL/well. After the centrifugation (2000 rpm, 4° C., 2 minutes), each antibody obtained in Example 7 was added to the pellet obtained by removing the supernatant, and suspended, and then left stand at ice temperature for 30 minutes.
After the further centrifugation (2000 rpm, 4° C., 2 minutes), the pellet obtained by removing the supernatant was washed twice with 200 μL/well of the staining buffer. Thereafter, 1 μg/mL of RPE fluorescently labeled mouse anti-human antibody (hinge region) clone 4E3 antibody (manufactured by Southern Bioblot) was added thereto by 50 μL/well and incubated at ice temperature for 30 minutes. After washing twice with the staining buffer, the cells were suspended in 200 μL/well of the staining buffer, and the fluorescence intensity of each cell was measured with the flow cytometer FACSCANTO II (manufactured by Becton Dickinson). The obtained results are illustrated in FIG. 2 and FIG. 3.
hPSMA/L929 cells were stained with anti-TRAILR2 monoclonal antibody E11 antibody, anti-hPSMA monoclonal antibody PI134 antibody, or hTRAILR2-hPSMA bispecific antibody E11-CH1-PI101VH antibody, E11-CH1-PN7VH antibody or E11-CH1-PN170VH antibody. The obtained results are illustrated in FIG. 2.

Q: Does B9 bind?
A: Result: binds

Q: Does B10 bind?
A: Result: binds

Q: Does B11 bind?
A: Result: binds

Source: patent US20180016346A1 (Kyowa Kirin, published 2018)
